The assay concerns the target T1, Human MAdCAM (human, UniProt Q13477 19-317, limits assumed).
T1 construct: also called huMAdCAM; human MAdCAM-1
T1 sequence (looked up): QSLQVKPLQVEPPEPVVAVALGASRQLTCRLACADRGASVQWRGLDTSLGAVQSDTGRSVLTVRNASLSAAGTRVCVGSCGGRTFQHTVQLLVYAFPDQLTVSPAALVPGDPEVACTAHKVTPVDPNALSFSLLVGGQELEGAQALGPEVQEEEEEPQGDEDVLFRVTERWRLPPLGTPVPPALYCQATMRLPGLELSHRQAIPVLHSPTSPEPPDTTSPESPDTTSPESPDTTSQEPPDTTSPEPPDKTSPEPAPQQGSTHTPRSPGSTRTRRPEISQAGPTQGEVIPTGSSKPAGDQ
Put plainly: BLI Octet, AHC capture. On the technique in general: Biolayer interferometry detects binding as a change in optical thickness at a sensor tip.

B1: PMAB21 (bispecific antibody, human IgG1, kappa)
heavy: EVQLLESGGGLVQPGGSLRLSCAASGFTFSNSDMSWVRQAPGKGLEWVSGITISGGSTYYADSVKGRFTISRDNSKNTLYLQMNSLRAEDTAVYYCARGRGGSGWLDYWGQGTLVTVSSASTKGPSVFPLAPSSKSTSGGTAALGCLVKDYFPEPVTVSWNSGALTSGVHTFPAVLQSSGLYSLSSVVTVPSSSLGTQTYICNVNHKPSNTKVDKKVEPKSCDKTHTCPPCPAPEAAGAPSVFLFPPKPKDTLMISRTPEVTCVVVDVSHEDPEVKFNWYVDGVEVHNAKTKPREEQYNSTYRVVSVLTVLHQDWLNGKEYKCKVSNKALPAPIEKTISKAKGQPREPQVYTLPPSREEMTKNQVSLTCLVKGFYPSDIAVEWESNGQPENNYKTTPPVLDSDGSFFLYSKLTVDKSRWQQGNVFSCSVMHEALHNHYTQKSLSLSPGGGGGSGGGGSGGGGSEVQLLESGGGLVQPGGSLRLSCAASGFTFSDFAMHWVRQAPGKGLEWISYISGDSGYTNYADSVKGRFTISRDNSKNTLYLQMNSLRAEDTAVYYCARDRPYYYYMDVWGKGTTVTVSSGGGGSGGGGSGGGGSGGGGSDIQMTQSPSSLSASVGDRVTITCRASQSVSRSLAWYQQKPGKAPKLLIYAASSLQSGVPSRFSGSGSGTDFTLTISSLQPEDFATYYCQQYKSYPVTFGQGTKVEIK
light: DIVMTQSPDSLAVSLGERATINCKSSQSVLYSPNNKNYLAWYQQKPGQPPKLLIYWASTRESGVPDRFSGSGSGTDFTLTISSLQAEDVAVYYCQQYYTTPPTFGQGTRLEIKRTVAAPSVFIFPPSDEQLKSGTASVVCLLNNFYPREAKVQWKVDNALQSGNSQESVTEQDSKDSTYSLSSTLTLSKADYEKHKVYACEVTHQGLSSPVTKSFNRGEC
For the molecule B1, the binding result is listed as “no binding (tested: 300 nM top concentration)”.

B2: PMAB38 (bispecific antibody, human IgG1, kappa)
heavy: EVQLLESGGGLVQPGGSLRLSCAASGFTFSNSDMSWVRQAPGKGLEWVSGITISGGSTYYADSVKGRFTISRDNSKNTLYLQMNSLRAEDTAVYYCARGRGGSGWLDYWGQGTLVTVSSASTKGPSVFPLAPSSKSTSGGTAALGCLVKDYFPEPVTVSWNSGALTSGVHTFPAVLQSSGLYSLSSVVTVPSSSLGTQTYICNVNHKPSNTKVDKKVEPKSCDKTHTCPPCPAPEAAGAPSVFLFPPKPKDTLMISRTPEVTCVVVDVSHEDPEVKFNWYVDGVEVHNAKTKPREEQYNSTYRVVSVLTVLHQDWLNGKEYKCKVSNKALPAPIEKTISKAKGQPREPQVYTLPPSREEMTKNQVSLTCLVKGFYPSDIAVEWESNGQPENNYKTTPPVLDSDGSFFLYSKLTVDKSRWQQGNVFSCSVMHEALHNHYTQKSLSLSPGGGGGSGGGGSGGGGSEVQLLESGGGLVQPGGSLRLSCAASGFTFSDFWMHWVRQAPGKGLEWISYISGDSGYTNYADSVKGRFTISRDNSKNTLYLQMNSLRAEDTAVYYCARDRPYYYYMDVWGKGTTVTVSSGGGGSGGGGSGGGGSGGGGSDIQMTQSPSSLSASVGDRVTITCRASQSVSRYLAWYQQKPGKAPKLLIYAASSLQSGVPSRFSGSGSGTDFTLTISSLQPEDFATYYCQQYKSYPVTFGQGTKVEIK
light: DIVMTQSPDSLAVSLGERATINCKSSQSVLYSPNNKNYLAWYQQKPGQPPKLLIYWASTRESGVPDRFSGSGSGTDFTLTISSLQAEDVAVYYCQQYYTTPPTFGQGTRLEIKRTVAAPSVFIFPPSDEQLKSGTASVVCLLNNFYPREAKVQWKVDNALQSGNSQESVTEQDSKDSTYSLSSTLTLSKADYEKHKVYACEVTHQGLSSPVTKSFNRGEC
Consider B2, for which the binding result is given as “no binding (tested: 200 nM top concentration)”.

B3: PMAB39 (bispecific antibody, human IgG1, kappa)
heavy: EVQLLESGGGLVQPGGSLRLSCAASGFTFSNSDMSWVRQAPGKGLEWVSGITISGGSTYYADSVKGRFTISRDNSKNTLYLQMNSLRAEDTAVYYCARGRGGSGWLDYWGQGTLVTVSSASTKGPSVFPLAPSSKSTSGGTAALGCLVKDYFPEPVTVSWNSGALTSGVHTFPAVLQSSGLYSLSSVVTVPSSSLGTQTYICNVNHKPSNTKVDKKVEPKSCDKTHTCPPCPAPEAAGAPSVFLFPPKPKDTLMISRTPEVTCVVVDVSHEDPEVKFNWYVDGVEVHNAKTKPREEQYNSTYRVVSVLTVLHQDWLNGKEYKCKVSNKALPAPIEKTISKAKGQPREPQVYTLPPSREEMTKNQVSLTCLVKGFYPSDIAVEWESNGQPENNYKTTPPVLDSDGSFFLYSKLTVDKSRWQQGNVFSCSVMHEALHNHYTQKSLSLSPGGGGGSGGGGSGGGGSEVQLLESGGGLVQPGGSLRLSCAASGFTFSDFWMHWVRQAPGKGLEWISYISGDSGYTNYADSVKGRFTISRDNSKNTLYLQMNSLRAEDTAVYYCARDRPYYYYMDVWGKGTTVTVSSGGGGSGGGGSGGGGSGGGGSDIQMTQSPSSLSASVGDRVTITCRASQSVSRSLNWYQQKPGKAPKLLIYAASSLQSGVPSRFSGSGSGTDFTLTISSLQPEDFATYYCQQYKSYPVTFGQGTKVEIK
light: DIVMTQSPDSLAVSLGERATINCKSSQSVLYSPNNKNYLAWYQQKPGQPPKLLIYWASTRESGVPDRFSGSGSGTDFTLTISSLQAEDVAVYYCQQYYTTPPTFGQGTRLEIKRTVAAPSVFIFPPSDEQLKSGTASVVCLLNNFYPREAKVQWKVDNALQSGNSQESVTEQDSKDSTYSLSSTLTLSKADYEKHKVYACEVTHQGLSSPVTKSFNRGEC
Turning to B3, the binding result is “no binding (tested: 200 nM top concentration)”.

B4: PMAB43 (bispecific antibody, human IgG1, kappa)
heavy: EVQLLESGGGLVQPGGSLRLSCAASGFTFSNSDMSWVRQAPGKGLEWVSGITISGGSTYYADSVKGRFTISRDNSKNTLYLQMNSLRAEDTAVYYCARGRGGSGWLDYWGQGTLVTVSSASTKGPSVFPLAPSSKSTSGGTAALGCLVKDYFPEPVTVSWNSGALTSGVHTFPAVLQSSGLYSLSSVVTVPSSSLGTQTYICNVNHKPSNTKVDKKVEPKSCDKTHTCPPCPAPEAAGAPSVFLFPPKPKDTLMISRTPEVTCVVVDVSHEDPEVKFNWYVDGVEVHNAKTKPREEQYNSTYRVVSVLTVLHQDWLNGKEYKCKVSNKALPAPIEKTISKAKGQPREPQVYTLPPSREEMTKNQVSLTCLVKGFYPSDIAVEWESNGQPENNYKTTPPVLDSDGSFFLYSKLTVDKSRWQQGNVFSCSVMHEALHNHYTQKSLSLSPGGGGGSGGGGSGGGGSEVQLLESGGGLVQPGGSLRLSCAASGFTFSDFWMHWVRQAPGKGLEWISYISGDSGYTNYADSVKGRFTISRDNSKNTLYLQMNSLRAEDTAVYYCARDRPYYYYMDVWGKGTTVTVSSGGGGSGGGGSGGGGSGGGGSDIQMTQSPSSLSASVGDRVTITCRASQSVSRSLAWYQQKPGKAPKLLIYAASSLQSGVPSRFSGSGSGTDFTLTISSLQPEDFATYYCQQYKSYPRTFGQGTKVEIK
light: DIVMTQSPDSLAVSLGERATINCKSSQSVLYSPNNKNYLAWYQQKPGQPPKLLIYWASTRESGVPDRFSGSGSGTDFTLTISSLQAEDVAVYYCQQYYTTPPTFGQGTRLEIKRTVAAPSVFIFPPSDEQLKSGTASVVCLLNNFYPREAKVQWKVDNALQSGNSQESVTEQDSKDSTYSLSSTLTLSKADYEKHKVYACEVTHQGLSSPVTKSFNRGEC
On to B4, for which the binding result was “no binding (tested: 200 nM top concentration)”.

B5: MIAB133 (antibody, human IgG1, kappa)
heavy: EVQLLESGGGLVQPGGSLRLSCAASGFTFSSFWMHWVRQAPGKGLEWISYISGDSGYTNYADSVKGRFTISRDNSKNTLYLQMNSLRAEDTAVYYCARDRPYYYYMDVWGKGTTVTVSSASTKGPSVFPLAPSSKSTSGGTAALGCLVKDYFPEPVTVSWNSGALTSGVHTFPAVLQSSGLYSLSSVVTVPSSSLGTQTYICNVNHKPSNTKVDKKVEPKSCDKTHTCPPCPAPEAAGAPSVFLFPPKPKDTLMISRTPEVTCVVVDVSHEDPEVKFNWYVDGVEVHNAKTKPREEQYNSTYRVVSVLTVLHQDWLNGKEYKCKVSNKALPAPIEKTISKAKGQPREPQVYTLPPSREEMTKNQVSLTCLVKGFYPSDIAVEWESNGQPENNYKTTPPVLDSDGSFFLYSKLTVDKSRWQQGNVFSCSVMHEALHNHYTQKSLSLSPGGGGGSAPTSSSTKKTQLQLEHLLLDLQMILNGINNYKNPKLTRMLTFKFYMPKKATELKHLQCLEEELKPLEEALNLAPSKNFHLRPRDLISDINVIVLELKGSETTFMCEYADETATIVEFINRWITFSQSIISTLT
light: DIQMTQSPSSLSASVGDRVTITCRASQSVSRSLAWYQQKPGKAPKLLIYAASSLQSGVPSRFSGSGSGTDFTLTISSLQPEDFATYYCQQYKSYPVTFGQGTKVEIKRTVAAPSVFIFPPSDEQLKSGTASVVCLLNNFYPREAKVQWKVDNALQSGNSQESVTEQDSKDSTYSLSSTLTLSKADYEKHKVYACEVTHQGLSSPVTKSFNRGEC
notes: also called MIAB133-001
In turn, B5 had a Kd of 20 nM, a koff of 0.0113 s⁻¹ and a kon of 564000 M⁻¹ s⁻¹.

For orientation: Kd means the equilibrium constant for the complex coming apart. Low values mean higher affinity, high ones lower affinity. Usually koff stands for the first-order rate constant of dissociation. High values mean fast dissociation, low ones slow dissociation. In general, kon refers to the second-order rate constant of association. A low value points to slower complex formation.
